The values that follow come from PMC5290273 (Nature Communications, 2017).

Substitutions are numbered along the chain they refer to. In names and notes the source's numbering stands. No end group written: not given here. *: point of attachment. 5FAM = O=C1OC2(c3ccc(O)cc3Oc3cc(O)ccc32)c2ccc(C(=O)*)cc21; GABA = NCCCC(=O)O

T1: ELL2^Occ (ELL2 residues 519–640), the ELL2 part of the crystallised fusion (human, UniProt O00472 519-640, selenomethionine (SeMet crystals used for phasing and refinement))
T1 sequence (looked up): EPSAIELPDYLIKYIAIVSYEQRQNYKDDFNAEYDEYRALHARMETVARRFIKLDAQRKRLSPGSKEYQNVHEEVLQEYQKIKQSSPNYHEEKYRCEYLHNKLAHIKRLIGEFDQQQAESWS

T2: Sumo-ELL2^Occ (human, UniProt O00472 519-640)
T2 sequence (looked up): T1 sequence (looked up)

T3: Sumo-ELL2^Occ, wild type (human, UniProt O00472 519-640)
T3 sequence (looked up): T1 sequence (looked up)

B1: AFF4^ELLBow (AFF4 residues 301–351), the AFF4 part of the crystallised fusion (domain or fragment, human, UniProt Q9UHB7 301-351, looked up)
chain: PSQPLDASASGDVSCVDEILKEMTHSWPPPLTAIHTPCKTEPSKFPFPTKE
modifications: not fully specified (residue 23); cysteine pairing not given here
B2: His6-AFF4^ELLBow L331D (domain or fragment, human, UniProt Q9UHB7 301-351, looked up)
chain: B1 chain with L31D
B3: His6-AFF4^ELLBow F345D/F347D (domain or fragment, human, UniProt Q9UHB7 301-351, looked up)
chain: B1 chain with F45D, F47D
B4: His6-AFF4^ELLBow E322H (domain or fragment, human, UniProt Q9UHB7 301-351, looked up)
chain: B1 chain with E22H
B5: His6-AFF4^ELLBow I334D (domain or fragment, human, UniProt Q9UHB7 301-351, looked up)
chain: B1 chain with I34D
B6: His6-AFF4^ELLBow K321P (domain or fragment, human, UniProt Q9UHB7 301-351, looked up)
chain: B1 chain with K21P
B7: His6-AFF4^ELLBow D317P/E318P (domain or fragment, human, UniProt Q9UHB7 301-351, looked up)
chain: B1 chain with D17P, E18P
B8: His6-AFF4^ELLBow W327D (domain or fragment, human, UniProt Q9UHB7 301-351, looked up)
chain: B1 chain with W27D
B9: His6-AFF4^ELLBow T332K (domain or fragment, human, UniProt Q9UHB7 301-351, looked up)
chain: B1 chain with T32K
B10: His6-AFF4^ELLBow I319D/L320D (domain or fragment, human, UniProt Q9UHB7 301-351, looked up)
chain: B1 chain with I19D, L20D
B11: His6-AFF4^ELLBow M323D (domain or fragment, human, UniProt Q9UHB7 301-351, looked up)
chain: B1 chain with M23D
B12: His6-AFF4^ELLBow L331D/I334D (domain or fragment, human, UniProt Q9UHB7 301-351, looked up)
chain: B1 chain with L31D, I34D
B13: His6-AFF4^ELLBow P342D (domain or fragment, human, UniProt Q9UHB7 301-351, looked up)
chain: B1 chain with P42D
B14: His6-AFF4^ELLBow V316D (domain or fragment, human, UniProt Q9UHB7 301-351, looked up)
chain: B1 chain with V16D
B15: His6-tagged wild-type AFF4^ELLBow (AFF4 301–351) (peptide, UniProt Q9UHB7 301-351, looked up)
chain: B1 chain
B16: His-tagged AFF4^ELLBow (301–351) F345D/F347D (peptide, UniProt Q9UHB7 301-351, looked up)
chain: B1 chain with F45D, F47D
B17: His-tagged AFF4^ELLBow (301–351) M323D (peptide, UniProt Q9UHB7 301-351, looked up)
chain: B1 chain with M23D
B18: His-tagged AFF4^ELLBow (301–351) P342D (peptide, UniProt Q9UHB7 301-351, looked up)
chain: B1 chain with P42D
B19: His-tagged AFF4^ELLBow (301–351) W327D (peptide, UniProt Q9UHB7 301-351, looked up)
chain: B1 chain with W27D
B20: His-tagged AFF4^ELLBow (301–351) L331D (peptide, UniProt Q9UHB7 301-351, looked up)
chain: B1 chain with L31D
B21: His-tagged AFF4^ELLBow (301–351) I319D/L320D/M323D (peptide, UniProt Q9UHB7 301-351, looked up)
chain: B1 chain with I19D, L20D, M23D
B22: His-tagged AFF4^ELLBow (301–351) I319D/L320D (peptide, UniProt Q9UHB7 301-351, looked up)
chain: B1 chain with I19D, L20D
B23: His-tagged AFF4^ELLBow (301–351) E322H (peptide, UniProt Q9UHB7 301-351, looked up)
chain: B1 chain with E22H
B24: His-tagged AFF4^ELLBow (301–351) double 328–329 Pro–Gly mutant (peptide, UniProt Q9UHB7 301-351, looked up)
chain: B1 chain with P28G, P29G
B25: His-tagged AFF4^ELLBow (301–351) I334D (peptide, UniProt Q9UHB7 301-351, looked up)
chain: B1 chain with I34D
B26: fluorescently labelled AFF1^ELLBow peptide 358–390 (peptide)
peptide: {5FAM-GABA}-EILKEMTHSWPPPLTAIHTPSTAEPSKFPFPTK-NH2
SMILES: CC[C@H](C)[C@H](NC(=O)[C@H](C)NC(=O)[C@@H](NC(=O)[C@H](CC(C)C)NC(=O)[C@@H]1CCCN1C(=O)[C@@H]1CCCN1C(=O)[C@@H]1CCCN1C(=O)[C@H](Cc1c[nH]c2ccccc12)NC(=O)[C@H](CO)NC(=O)[C@H](Cc1c[nH]cn1)NC(=O)[C@@H](NC(=O)[C@H](CCSC)NC(=O)[C@H](CCC(=O)O)NC(=O)[C@H](CCCCN)NC(=O)[C@H](CC(C)C)NC(=O)[C@@H](NC(=O)[C@H](CCC(=O)O)NC(=O)CCCNC(=O)c1ccc2c(c1)C(=O)OC21c2ccc(O)cc2Oc2cc(O)ccc21)[C@@H](C)CC)[C@@H](C)O)[C@@H](C)O)C(=O)N[C@@H](Cc1c[nH]cn1)C(=O)N[C@H](C(=O)N1CCC[C@H]1C(=O)N[C@@H](CO)C(=O)N[C@H](C(=O)N[C@@H](C)C(=O)N[C@@H](CCC(=O)O)C(=O)N1CCC[C@H]1C(=O)N[C@@H](CO)C(=O)N[C@@H](CCCCN)C(=O)N[C@@H](Cc1ccccc1)C(=O)N1CCC[C@H]1C(=O)N[C@@H](Cc1ccccc1)C(=O)N1CCC[C@H]1C(=O)N[C@H](C(=O)N[C@@H](CCCCN)C(N)=O)[C@@H](C)O)[C@@H](C)O)[C@@H](C)O
notes: also called fluorescent peptide
B27: GST-ELL2 (519–640) H559E (domain or fragment, human, UniProt O00472 519-640, looked up)
chain: T1 sequence (looked up) with H41E
B28: GST-ELL2 (519–640) K625T (domain or fragment, human, UniProt O00472 519-640, looked up)
chain: T1 sequence (looked up) with K107T
B29: GST-ELL2 (519–640) H608E (domain or fragment, human, UniProt O00472 519-640, looked up)
chain: T1 sequence (looked up) with H90E

Chain of AFF4, endogenous (human (endogenous in HEK 293T)) (Q9UHB7 whole entry): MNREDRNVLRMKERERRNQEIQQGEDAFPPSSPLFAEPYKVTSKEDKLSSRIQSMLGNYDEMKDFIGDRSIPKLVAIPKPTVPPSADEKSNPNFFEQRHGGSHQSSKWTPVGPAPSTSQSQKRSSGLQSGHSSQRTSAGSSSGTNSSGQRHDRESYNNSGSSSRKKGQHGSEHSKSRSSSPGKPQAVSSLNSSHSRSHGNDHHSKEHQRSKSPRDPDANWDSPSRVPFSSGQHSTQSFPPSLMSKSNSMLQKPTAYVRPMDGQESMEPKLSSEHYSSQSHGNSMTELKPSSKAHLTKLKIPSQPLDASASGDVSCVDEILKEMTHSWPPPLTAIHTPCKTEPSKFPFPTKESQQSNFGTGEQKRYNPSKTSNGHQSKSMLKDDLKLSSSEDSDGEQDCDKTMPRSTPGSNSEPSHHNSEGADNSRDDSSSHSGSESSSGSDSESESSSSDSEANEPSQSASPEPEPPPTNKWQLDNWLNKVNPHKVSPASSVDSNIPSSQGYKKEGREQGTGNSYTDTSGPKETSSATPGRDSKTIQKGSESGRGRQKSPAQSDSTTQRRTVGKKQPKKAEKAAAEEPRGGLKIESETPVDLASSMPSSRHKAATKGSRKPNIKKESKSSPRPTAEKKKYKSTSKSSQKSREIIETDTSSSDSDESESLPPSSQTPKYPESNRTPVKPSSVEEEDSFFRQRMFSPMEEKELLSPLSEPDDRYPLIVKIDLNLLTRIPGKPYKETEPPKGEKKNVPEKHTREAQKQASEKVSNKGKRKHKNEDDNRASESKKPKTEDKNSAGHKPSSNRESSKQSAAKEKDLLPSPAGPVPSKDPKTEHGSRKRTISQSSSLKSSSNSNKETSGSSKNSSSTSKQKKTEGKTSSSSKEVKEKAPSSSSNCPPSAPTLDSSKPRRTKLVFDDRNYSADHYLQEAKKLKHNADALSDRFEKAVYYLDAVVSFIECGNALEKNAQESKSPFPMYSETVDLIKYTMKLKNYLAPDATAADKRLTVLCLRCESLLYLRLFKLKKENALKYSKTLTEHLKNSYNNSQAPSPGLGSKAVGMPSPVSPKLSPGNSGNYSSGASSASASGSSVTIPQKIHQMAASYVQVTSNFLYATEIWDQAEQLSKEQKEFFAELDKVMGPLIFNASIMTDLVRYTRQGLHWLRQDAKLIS

For the first assay, the target named is T1, ELL2^Occ (ELL2 residues 519–640), the …. Briefly: crystal structure. Conditions: both partners purified.
On to B1, for which the binding result is listed as “binds”.

The next assay addresses AFF4, endogenous (human (endogenous in HEK 293T)) (UniProt Q9UHB7).
Assay: not given
Conditions: not given
Take “HA-tagged ELL2^H559E/H608E/N619A/K625T (from UniProt O00472 1-640) (natural protein)”: the other (fold less than wild type) stood at 5.

The next assay concerns the target ELL2^Occ–(Gly-Ser)4–AFF4^ELLBow (human) (UniProt O00472). Briefly: SEC; Hiload 16/60 (GE) gel filtration; elution volumes; 44 kDa and 17 kDa markers shown in panel a.
Conditions: not given
As usually defined, the stoichiometry N is the number of molecules, sites or subunits per partner or assembly. “ELL2^Occ–(Gly-Ser)4–AFF4^ELLBow (from UniProt O00472 519-640; Q9UHB7 301-351)” gave a stoichiometry N of 2.

The target of a further assay is T2, Sumo-ELL2^Occ. Briefly: fluorescence polarisation. Conditions: both partners purified. A general note: In fluorescence polarisation assays a small probe gives low polarisation when free and higher when bound to something large.
For orientation: Kd means the equilibrium constant for the complex coming apart. B2 gave a Kd of 1600 ± 310 nM.

B3 gave a dissociation constant Kd of 130 ± 58 nM.

For B4, the affinity, expressed as Kd, was 130 ± 33 nM.

B5 came in with a dissociation constant (Kd) of 670 ± 210 nM.

B6 gave a Kd of 240 ± 60 nM.

The molecule B7 gave a Kd of 800 ± 180 nM. Against the preceding molecule, the Kd is about 3.3-fold higher.

On to B8, for which the Kd was determined as 370 ± 86 nM.

In the case of B9, the dissociation constant (Kd) worked out at 69 ± 37 nM. This Kd is about 5.4-fold lower than that of the molecule before.

B10: the Kd turned out to be 5400 ± 1870 nM.

For the molecule B11, the affinity, expressed as Kd, was 2700 ± 1140 nM.

With B12, the Kd turned out to be 1900 ± 510 nM.

Regarding B13, the Kd was found to be 200 ± 50 nM.

Molecule B14 returned a Kd of 230 ± 48 nM.

Molecule EILKEMTHSWPPPLTAIHTPCKTEPSKFPFPTK (peptide, UniProt Q9UHB7 318-350, looked up) [AFF4 WT, 318-350 peptide] displayed an equilibrium dissociation constant (Kd) of 4000 ± 1570 nM.

Another assay has as its target T3, Sumo-ELL2^Occ, wild type. Briefly: fluorescence polarisation. To be noted: both partners purified.
The molecule B15 gave a dissociation constant (Kd) of 86 nM.

Regarding B16, the other is less than 2 fold.

The molecule B17 registered an other greater than 25 fold.

Consider B18, for which the other was roughly 3 fold.

Turning to B19, the other was determined as 4 fold.

B20 registered an other of roughly 20 fold.

B21 came in with a Kd greater than 3000 nM.

Regarding B22, the other is greater than 25 fold.

Turning to B23, the other was less than 2 fold.

Take B24: the other was 3 fold.

The molecule B25 registered an other of 8 fold.

As to B26, the binding result is “binds”.

A further assay has as its target B15. Briefly: pull-down. Conditions: both partners purified.
As for B27, the binding result is “binds”.

Take B28: the binding result is “binds”.

With B29, the binding result was “binds”.

Another assay concerns the target Sumo-ELL2^Occ (human) (UniProt O00472). Briefly: fluorescence polarisation.
Conditions: not given
“His6-AFF4^ELLBow P328G/P329G (from UniProt Q9UHB7 301-351) (domain or fragment)” returned a Kd of 270 nM. This lies in the sub-micromolar range.

The next assay deals with Sumo-ELL2^Occ, wild type (human) (UniProt O00472). Briefly: fluorescence polarisation.
Conditions: not given
As for “His-tagged AFF4^ELLBow (301–351) D317P/E317P (from UniProt Q9UHB7 301-351) (peptide)”, the other was found to be 10 fold.
